Results as given in the supplement of paper PMC5998384.

Legend:
HeLa Kyoto [1] = experiment: solubility in G1/S (NP-40 vs SDS abundance) (log2 ratio); higher = more soluble; settings: cell cycle stage: G1/S
HeLa Kyoto [2] = experiment: solubility change mitosis vs G1/S (difference of NP-40 vs SDS log2 ratios) (log2 ratio difference); higher = more soluble in mitosis
HeLa Kyoto [3] = experiment: thermal stability score vs G1/S (z-score of summed log2 fold changes over temperatures); higher = more thermally stable than in G1/S
[4] = cell cycle stage: early G1 (4.5 h after nocodazole release)
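Throughout, for solubility change mitosis vs G1/S (difference of NP-40 vs SDS log2 ratios): synchronized HeLa Kyoto cells (double thymidine block for G1/S, nocodazole release for mitosis), protein amounts in NP-40 versus SDS lysates quantified by mass spectrometry, three biological replicates.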
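Throughout, for solubility in G1/S (NP-40 vs SDS abundance): HeLa Kyoto cells arrested at G1/S by double thymidine block, proteins quantified by TMT10plex mass spectrometry in mild NP-40 versus SDS extracts, three biological replicates.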
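Throughout, for thermal stability score vs G1/S (z-score of summed log2 fold changes over temperatures): synchronized HeLa Kyoto cells, proteins quantified by TMT10plex mass spectrometry, three biological replicates, mitosis taken 0.5 h after nocodazole release, G1/S directly after double thymidine block.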

Substance	solubility in G1/S (log2) (HeLa Kyoto [1])	solubility change mitosis (log2) (HeLa Kyoto [2])	thermal stability score (HeLa Kyoto [3]; [4])	thermal stability score (HeLa Kyoto [3]; cell cycle stage: mitosis)
MGFGSDLKNSHEAVLKLQDWELRLLETVKKFMALRIKSDKEYASTLQNLCNQVDKESTVQMNYVSNVSKSWLLMIQQTEQLSRIMKTHAEDLNSGPLHRLTMMIKDKQQVKKSYIGVHQQIEAEMIKVTKTELEKLKCSYRQLIKEMNSAKEKYKEALAKGKETEKAKERYDKATMKLHMLHNQYVLALKGAQLHQNQYYDITLPLLLDSLQKMQEEMIKALKGIFDEYSQITSLVTEEIVNVHKEIQMSVEQIDPSTEYNNFIDVHRTTAAKEQEIEFDTSLLEENENLQANEIMWNNLTAESLQVMLKTLAEELMQTQQMLLNKEEAVLELEKRIEESSETCEKKSDIVLLLSQKQALEELKQSVQQLRCTEAKFSAQKELLEQKVQENDGKEPPPVVNYEEDARSVTSMERKERLSKFESIRHSIAGIIRSPKSALGSSALSDMISISEKPLAEQDWYHGAIPRIEAQELLKKQGDFLVRESHGKPGEYVLSVYSDGQRRHFIIQYVDNMYRFEGTGFSNIPQLIDHHYTTKQVITKKSGVVLLNPIPKDKKWILSHEDVILGELLGKGNFGEVYKGTLKDKTSVAVKTCKEDLPQELKIKFLQEAKILKQYDHPNIVKLIGVCTQRQPVYIIMELVSGGDFLTFLRRKKDELKLKQLVKFSLDAAAGMLYLESKNCIHRDLAARNCLVGENNVLKISDFGMSRQEDGGVYSSSGLKQIPIKWTAPEALNYGRYSSESDVWSFGILLWETFSLGVCPYPGMTNQQAREQVERGYRMSAPQHCPEDISKIMMKCWDYKPENRPKFSELQKELTIIKRKLT [FER]	-0.0779	-0.106	-0.138	-0.342
MPV17L2	-0.0909	-0.154	-0.139	-0.811
MWKRSEQMKIKSGKCNMAAAMETEQLGVEIFETADCEENIESQDRPKLEPFYVERYSWSQLKKLLADTRKYHGYMMAKAPHDFMFVKRNDPDGPHSDRIYYLAMSGENRENTLFYSEIPKTINRAAVLMLSWKPLLDLFQATLDYGMYSREEELLRERKRIGTVGIASYDYHQGSGTFLFQAGSGIYHVKDGGPQGFTQQPLRPNLVETSCPNIRMDPKLCPADPDWIAFIHSNDIWISNIVTREERRLTYVHNELANMEEDARSAGVATFVLQEEFDRYSGYWWCPKAETTPSGGKILRILYEENDESEVEIIHVTSPMLETRRADSFRYPKTGTANPKVTFKMSEIMIDAEGRIIDVIDKELIQPFEILFEGVEYIARAGWTPEGKYAWSILLDRSQTRLQIVLISPELFIPVEDDVMERQRLIESVPDSVTPLIIYEETTDIWINIHDIFHVFPQSHEEEIEFIFASECKTGFRHLYKITSILKESKYKRSSGGLPAPSDFKCPIKEEIAITSGEWEVLGRHGSNIQVDEVRRLVYFEGTKDSPLEHHLYVVSYVNPGEVTRLTDRGYSHSCCISQHCDFFISKYSNQKNPHCVSLYKLSSPEDDPTCKTKEFWATILDSAGPLPDYTPPEIFSFESTTGFTLYGMLYKPHDLQPGKKYPTVLFIYGGPQVQLVNNRFKGVKYFRLNTLASLGYVVVVIDNRGSCHRGLKFEGAFKYKMGQIEIDDQVEGLQYLASRYDFIDLDRVGIHGWSYGGYLSLMALMQRSDIFRVAIAGAPVTLWIFYDTGYTERYMGHPDQNEQGYYLGSVAMQAEKFPSEPNRLLLLHGFLDENVHFAHTSILLSFLVRAGKPYDLQIYPQERHSIRVPESGEHYELHLLHYLQENLGSRIAALKVI [DPP8]	-0.288	-0.0129	-0.204	0.0056
MSSEMLPAFIETSNVDKKQGINEDQEESQKPRLGEGCEPISKRQMKKLIKQKQWEEQRELRKQKRKEKRKRKKLERQCQMEPNSDGHDRKRVRRDVVHSTLRLIIDCSFDHLMVLKDIKKLHKQIQRCYAENRRALHPVQFYLTSHGGQLKKNMDENDKGWVNWKDIHIKPEHYSELIKKEDLIYLTSDSPNILKELDESKAYVIGGLVDHNHHKGLTYKQASDYGINHAQLPLGNFVKMNSRKVLAVNHVFEIILEYLETRDWQEAFFTILPQRKGAVPTDKACESASHDNQSVRMEEGGSDSDSSEEEYSRNELDSPHEEKQDKENHTESTVNSLPH [TRMT10A]	-0.0218	-0.0488	0.883	0.552
MESSSSDYYNKDNEEESLLANVASLRHELKITEWSLQSLGEELSSVSPSENSDYAPNPSRSEKLILDVQPSHPGLLNYSPYENVCKISGSSTDFQKKPRDKMFSSSAPVDQEIKSLREKLNKLRQQNACLVTQNHSLMTKFESIHFELTQSRAKVSMLESAQQQAASVPILEEQIINLEAEVSAQDKVLREAENKLEQSQKMVIEKEQSLQESKEECIKLKVDLLEQTKQGKRAERQRNEALYNAEELSKAFQQYKKKVAEKLEKVQAEEEILERNLTNCEKENKRLQERCGLYKSELEILKEKLRQLKEENNNGKEKLRIMAVKNSEVMAQLTESRQSILKLESELENKDEILRDKFSLMNENRELKVRVAAQNERLDLCQQEIESSRVELRSLEKIISQLPLKRELFGFKSYLSKYQMSSFSNKEDRCIGCCEANKLVISELRIKLAIKEAEIQKLHANLTANQLSQSLITCNDSQESSKLSSLETEPVKLGGHQVESVKDQNQHTMNKQYEKERQRLVTGIEELRTKLIQIEAENSDLKVNMAHRTSQFQLIQEELLEKASNSSKLESEMTKKCSQLLTLEKQLEEKIVAYSSIAAKNAELEQELMEKNEKIRSLETNINTEHEKICLAFEKAKKIHLEQHKEMEKQIERLEAQLEKKDQQFKEQEKTMSMLQQDIICKQHHLESLDRLLTESKGEMKKENMKKDEALKALQNQVSEETIKVRQLDSALEICKEELVLHLNQLEGNKEKFEKQLKKKSEEVYCLQKELKIKNHSLQETSEQNVILQHTLQQQQQMLQQETIRNGELEDTQTKLEKQVSKLEQELQKQRESSAEKLRKMEEKCESAAHEADLKRQKVIELTGTARQVKIEMDQYKEELSKMEKEIMHLKRDGENKAMHLSQLDMILDQTKTELEKKTNAVKELEKLQHSTETELTEALQKREVLETELQNAHGELKSTLRQLQELRDVLQKAQLSLEEKYTTIKDLTAELRECKMEIEDKKQELLEMDQALKERNWELKQRAAQVTHLDMTIREHRGEMEQKIIKLEGTLEKSELELKECNKQIESLNDKLQNAKEQLREKEFIMLQNEQEISQLKKEIERTQQRMKEMESVMKEQEQYIATQYKEAIDLGQELRLTREQVQNSHTELAEARHQQVQAQREIERLSSELEDMKQLSKEKDAHGNHLAEELGASKVREAHLEARMQAEIKKLSAEVESLKEAYHMEMISHQENHAKWKISADSQKSSVQQLNEQLEKAKLELEEAQDTVSNLHQQVQDRNEVIEAANEALLTKESELTRLQAKISGHEKAEDIKFLPAPFTSPTEIMPDVQDPKFAKCFHTSFSKCTKLRRSISASDLTFKIHGDEDLSEELLQDLKKMQLEQPSTLEESHKNLTYTQPDSFKPLTYNLEADSSENNDFNTLSGMLRYINKEVRLLKKSSMQTGAGLNQGENV [CCDC18]	0.155	0.237	-0.388	-0.856
MSTEGGGRRCQAQVSRRISFSASHRLYSKFLSDEENLKLFGKCNNPNGHGHNYKVVVTVHGEIDPATGMVMNLADLKKYMEEAIMQPLDHKNLDMDVPYFADVVSTTENVAVYIWDNLQKVLPVGVLYKVKVYETDNNIVVYKGE [PTS]	0.154	-0.182	-0.38	-1.87
MLKKQSAGLVLWGAILFVAWNALLLLFFWTRPAPGRPPSVSALDGDPASLTREVIRLAQDAEVELERQRGLLQQIGDALSSQRGRVPTAAPPAQPRVPVTPAPAVIPILVIACDRSTVRRCLDKLLHYRPSAELFPIIVSQDCGHEETAQAIASYGSAVTHIRQPDLSSIAVPPDHRKFQGYYKIARHYRWALGQVFRQFRFPAAVVVEDDLEVAPDFFEYFRATYPLLKADPSLWCVSAWNDNGKEQMVDASRPELLYRTDFFPGLGWLLLAELWAELEPKWPKAFWDDWMRRPEQRQGRACIRPEISRTMTFGRKGVSHGQFFDQHLKFIKLNQQFVHFTQLDLSYLQREAYDRDFLARVYGAPQLQVEKVRTNDRKELGEVRVQYTGRDSFKAFAKALGVMDDLKSGVPRAGYRGIVTFQFRGRRVHLAPPLTWEGYDPSWN [MGAT1]	-0.0579	0.0597	0.289	0.0296
CEP170B	0.0802	0.338	-3.46e-17	-1.29e-17
MDANSKDKPPETKESAMNNAGNASFILGTGKIVTPQKHAELPPNPCTPDTFKSPLNFSTVTVEQLGITPESFVRNSAGKSSSYLKKCRRRSAVGARGSPETNHLIRFIARQQNIKNARKSPLAQDSPSQGSPALYRNVNTLRERISAFQSAFHSIKENEKMTGCLEFSEAGKESEMTDLTRKEGLSACQQSGFPAVLSSKRRRISYQRDSDENLTDAEGKVIGLQIFNIDTDRACAVETSVDLSEISSKLGSTQSGFLVEESLPLSELTETSNALKVADCVVGKGSSDAVSPDTFTAEVSSDAVPDVRSPATPACRRDLPTPKTFVLRSVLKKPSVKMCLESLQEHCNNLYDDDGTHPSLISNLPNCCKEKEAEDEENFEAPAFLNMRKRKRVTFGEDLSPEVFDESLPANTPLRKGGTPVCKKDFSGLSSLLLEQSPVPEPLPQPDFDDKGENLENIEPLQVSFAVLSSPNKSSISETLSGTDTFSSSNNHEKISSPKVGRITRTSNRRNQLVSVVEESVCNLLNTEVQPCKEKKINRRKSQETKCTKRALPKKSQVLKSCRKKKGKGKKSVQKSLYGERDIASKKPLLSPIPELPEVPEMTPSIPSIRRLGSGYFSSNGKLEEVKTPKNPVKRKDLLRHDPDLHMHQGYDKYDVSEFCSYIKSSSSLGNATSDEDPNTNIMNINENKNIPKAKNKSESENEPKAGTDSPVSCASVTEERVASDSPKPALTLQQGQEFSAGGQNAENLCQFFKISPDLNIKCERKDDFLGAAEGKLQCNRLMPNSQKDCHCLGDVLIENTKESKSQSEDLGRKPMESSSVVSCRDRKDRRRSMCYSDGRSLHLEKNGNHTPSSSVGSSVEISLENSELFKDLSDAIEQTFQRRNSETKVRRSTRLQKDLENEGLVWISLPLPSTSQKAKRRTICTFDSSGFESMSPIKETVSSRQKPQMAPPVSDPENSQGPAAGSSDEPGKRRKSFCISTLANTKATSQFKGYRRRSSLNGKGESSLTALERIEHNGERKQ [CDCA2]	-0.581	0.243	0.00387	-1.54
MGFNLTFHLSYKFRLLLLLTLCLTVVGWATSNYFVGAIQEIPKAKEFMANFHKTLILGKGKTLTNEASTKKVELDNCPSVSPYLRGQSKLIFKPDLTLEEVQAENPKVSRGRYRPQECKALQRVAILVPHRNREKHLMYLLEHLHPFLQRQQLDYGIYVIHQAEGKKFNRAKLLNVGYLEALKEENWDCFIFHDVDLVPENDFNLYKCEEHPKHLVVGRNSTGYRLRYSGYFGGVTALSREQFFKVNGFSNNYWGWGGEDDDLRLRVELQRMKISRPLPEVGKYTMVFHTRDKGNEVNAERMKLLHQVSRVWRTDGLSSCSYKLVSVEHNPLYINITVDFWFGA [B4GALT4]	0.167	-0.14	-0.773	-0.781
MPDZ	-0.0106	0.0126	0.637	0.641
